Sequences and labels used below:
B1: Ribonuclease, P00648 (parent)
chain: MMKMEGIALKKRLSWISVCLLVLVSAAGMLFSTAAKTETSSHKAHTEAQVINTFDGVADYLQTYHKLPDNYITKSEAQALGWVASKGNLADVAPGKSIGGDIFSNREGKLPGKSGRTWREADINYTSGFRNSDRILYSSDWLIYKTTDHYQTFTKIR

Variants of B1 are the subject of the data set. Conditions: Bacillus amyloliquefaciens; pH 6.3; 25 °C; Urea; Fluorescence; MES 50 mM; reversible: yes; structure 1BNI; whole UniProt chain shown.

With Y150F, the “ddG of mutation (higher = less stable)” value is 0 kcal/mol and the unfolding free energy amounted to 8.83 kcal/mol.
For H149A the same measures were 0.24 kcal/mol and 8.59 kcal/mol.
For R106A the same measures were -0.64 kcal/mol and 9.47 kcal/mol.
For N105D, the “ddG of mutation (higher = less stable)” value is -0.4 kcal/mol and the unfolding free energy was found to be 9.23 kcal/mol.
For Q151A, in that order: 0.16 kcal/mol and 8.67 kcal/mol.
For E120A, in that order: 2.3 kcal/mol and 6.53 kcal/mol.
For S104A, in that order: -0.15 kcal/mol and 8.98 kcal/mol.
On to K74A, for which the “ddG of mutation (higher = less stable)” value was -0.36 kcal/mol and the unfolding free energy was 9.19 kcal/mol.
For D101N, in that order: 2.67 kcal/mol and 8.16 kcal/mol.

Source of the values: FireProtDB (doi:10.1016/0022-2836(92)90387-y).
